Experimental data taken from article PMC3763546, “Structural insight into negative DNA supercoiling by DNA gyrase, a bacterial type 2A DNA topoisomerase” (Nucleic Acids Research, 2013).

Target: the molecule itself
Assay: native MS; native ESI-MS (time-of-flight), 200 mM ammonium acetate pH 7.5, sample at 8 uM; without and with ADPNP, without and with the 155 bp DNA

B1: Thermus thermophilus GyrB-GyrA fusion protein (GyrBA-fus) (enzyme)
chain: MSYDASAIRVLKGLEGVRHRPAMYIGGTGVEGYHHLFKEILDNAVDEALAGYATEILVRLNEDGSLTVEDNGRGIPVDLMPEEGKPAVEVIYTTLHSGGKFEQGAYKVSGGLHGVGASVVNALSEWTVVEVFREGKHHRIAFSRGEVTEPLRVVGEAPRGKTGTRVTFKPDPEIFGNLRFDPSKIRARLREVAYLVAGLKLVFQDRQHGKEEVFLDKGGVASFAKALAEGEDLLYEKPFLIRGTHGEVEVEVGFLHTQGYNAEILTYANMIPTRDGGTHLTAFKSAYSRALNQYAKKAGLNKEKGPQPTGDDLLEGLYAVVSVKLPNPQFEGQTKGKLLNPEAGTAVGQVVYERLLEILEENPRIAKAVYEKALRAAQAREAARKARELVRRQNPLESDELPGKLADCQTENPEEAELFIVEGDSAGGSAKQGRDRRFQAILPLRGKILNVEKAGLSKALKNAEVRAMVSAIGVGIGGDGEAHFDLEGLRYHKIIIMTDADVDGSHIRTLLLTFFYRYMRPLIERGHVYIAQPPLYRLQVGKKVEYLYSDEELQARLKELEGKHYEVQRFKGLGEMNPEQLWETTMNPEKRVLKRVELQDALEASELFEKLMGQEVAPRREFIEEHARYAELDIGDLMAQVLPVEITEELKQSFINYAMSVIVDRALPDVRDGLKPVQRRILFGAYQEGVLPGRKHVKSAKIVGEVMGKYHPHGDAAIYDALVRMAQPWNLRYPLIDGQGNFGSIDGDPPAAQRYTEARLSPIGAEMLLDIDKDTVDFRPNYDGSLKEPEVLPAAIPNLLVNGASGIAVGMATSLPPHNLSEVVDALVAMIENPAITLEEVMRHLPGPDFPTGGKLSKKGIKEAYATGRGSLKVRAKVRVEEKGQRPVLVVTEIPYQVNKASLIAQIAALVKAKKIEDIVGLRDESDRQGLRIAIELKRGANPQVVLNQLYKHTALQTSFTVNLLAIVDGEPKVLSLLDLMRHYLDHRKEVVRRRSLFELRKAEERAHVLEGLLIALDHIDEVIALIRGSEDAPKARIALMERFGLSEAQAQAILDMRLQRLVALEREKLLEEYRGLMEEIARLKAILEDEARLLAEVKADLLRVKEKYGDARRTLITEFEETFNPEDLIEDEPMVITLTAQGFLKRLPLESYRAQGRGGKGLLAGRTKEEDEATHVFVADAHDDLLLFTNRGRVYRLKVYELPEMGRQARGVHVKSLLPLAEDEEVAALLSVRGLDQEGYLVFATERGLVKRTALKEYQNLGQAGLIAIRLQEGDRLVGVALSDPEDEAILATQEGQAIRFPLEEVRATGRDTQGVIGVRFKKPEDRVVSLVVVKPGEMVDLLSVSTRGYGKRTPLSEYPLQGRGGMGVITYAVSTKVGRLAALLKVRGGEDLLVLSRRGLAIRTPVAEIRQYSRATAGVRVMNLPEDDEVASAFVVEEEK
notes: DNA gyrase subunit B (GyrB), Thermus thermophilus, amplified from genomic DNA; three-amino acid G-D-L linker between the C-terminus of GyrB and the N-terminus of GyrA; DNA gyrase subunit A (GyrA), Thermus thermophilus, amplified from genomic DNA; The His10 tag stands upstream of a PreScission protease (P3C) site; Details of cloning and purification are in the Supplementary Methods; A dimer of the …
  stoichiometry N: 2
